This assay deals with Hsf1-13xMyc (S. cerevisiae) (UniProt P10961). The assay can be described thus: cross-linking; in vivo site-specific photo-crosslinking (UV-A, 1 hr on ice) from pBPa at position 423 of Ssa1-HA; cells grown at 30 C or heat shocked 3 min at 43 C; western with anti-HA and anti-Myc.

For one substance, decrease of Hsf1-Ssa1 crosslinking after heat shock (3 min results are on record in paper PMC6779467.

On to “Ssa1_(E423BPa)-HA (from UniProt P10591 1-642) (natural protein)”, for which the decrease of Hsf1-Ssa1 crosslinking after heat shock (3 min at 43 C) against cells at 30 C stood at 77%.
